In patent US6521594 (dated 2003):
Where two headings read alike, the source gives them in different places. Starred links: 1 amine or outer side, 2 acyl side, 3 side chain; linkers in the order of their positions; H or OH if unused. Positions of bridges follow the written chain, without caps; N, C: chain ends. Non-standard residues stand in square brackets, D forms with d. Primed or numbered codes have the meaning given here. No end group written: not given here. *: point of attachment. Tyr(OMe)″ = O-methyl-tyrosine (Y-OMe, TyrOMe, O-Me-Tyr), COc1ccc(C[C@H](N[*:1])C(=O)[*:2])cc1; Tyr(Me) = O-methyl-tyrosine (Y-OMe, O-Me-Tyr), COc1ccc(C[C@H](N[*:1])C(=O)[*:2])cc1; Tyr(nBu) = O-n-butyl-tyrosine, CCCCOc1ccc(C[C@H](N[*:1])C(=O)[*:2])cc1; Cys(β,β-pentamethylene) = O=C([C@@H](N[*:1])C1(S[*:3])CCCCC1)[*:2]; Y‑OMe = O-methyl-tyrosine, COc1ccc(C[C@H](N[*:1])C(=O)[*:2])cc1; Cyclohexylacetyl(1-SH) = O=C(CC1(S)CCCCC1)*; Phe(4-I) = N[C@@H](Cc1ccc(I)cc1)C(=O)O; hPhe = N[C@@H](CCc1ccccc1)C(=O)O; dPen = CC(C)(S)[C@@H](N)C(=O)O; Pen = CC(C)(S)[C@H](N)C(=O)O; code O = not defined here; Tmc = not defined here

How the values were obtained:
Test in all cases: ELISA
αvβ5 [1] = target: αvβ5
αvβ5 [2] = target: αvβ5; remark: listed apart in the source
αvβ5 [3] = target: αvβ5; remark: listed apart in the source
Fibronectin receptor [4] = target: T1, Fibronectin receptor (human, UniProt P08648 42-1049; P05556 21-798)
T1 sequence (P08648 42-1049, chain 1 of 2): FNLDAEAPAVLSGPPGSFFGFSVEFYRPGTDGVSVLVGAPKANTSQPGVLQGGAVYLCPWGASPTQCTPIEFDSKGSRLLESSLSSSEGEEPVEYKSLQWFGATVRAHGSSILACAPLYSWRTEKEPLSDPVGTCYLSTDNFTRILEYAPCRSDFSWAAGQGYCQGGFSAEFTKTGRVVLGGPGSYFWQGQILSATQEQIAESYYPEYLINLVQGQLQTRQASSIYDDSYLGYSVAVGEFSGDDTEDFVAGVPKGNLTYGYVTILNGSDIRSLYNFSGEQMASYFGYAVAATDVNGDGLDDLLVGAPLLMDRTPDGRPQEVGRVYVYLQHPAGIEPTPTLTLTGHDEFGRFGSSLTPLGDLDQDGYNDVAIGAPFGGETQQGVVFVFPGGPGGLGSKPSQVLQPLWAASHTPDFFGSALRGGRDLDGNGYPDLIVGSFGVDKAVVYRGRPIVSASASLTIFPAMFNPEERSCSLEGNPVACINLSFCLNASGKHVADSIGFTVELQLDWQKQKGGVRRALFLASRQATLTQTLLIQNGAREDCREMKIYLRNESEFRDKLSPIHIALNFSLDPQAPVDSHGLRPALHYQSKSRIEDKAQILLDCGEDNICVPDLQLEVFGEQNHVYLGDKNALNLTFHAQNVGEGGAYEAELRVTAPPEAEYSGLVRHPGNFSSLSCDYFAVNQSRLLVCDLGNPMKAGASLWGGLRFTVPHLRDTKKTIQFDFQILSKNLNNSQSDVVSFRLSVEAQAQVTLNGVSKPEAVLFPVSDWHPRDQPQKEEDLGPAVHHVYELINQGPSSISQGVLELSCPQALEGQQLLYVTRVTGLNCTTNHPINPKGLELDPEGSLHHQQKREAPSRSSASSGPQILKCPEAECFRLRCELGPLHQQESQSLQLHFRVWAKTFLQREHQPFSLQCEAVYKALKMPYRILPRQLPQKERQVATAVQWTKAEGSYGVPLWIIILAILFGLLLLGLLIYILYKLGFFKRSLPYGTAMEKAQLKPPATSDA
T1 sequence (P05556 21-798, chain 2 of 2): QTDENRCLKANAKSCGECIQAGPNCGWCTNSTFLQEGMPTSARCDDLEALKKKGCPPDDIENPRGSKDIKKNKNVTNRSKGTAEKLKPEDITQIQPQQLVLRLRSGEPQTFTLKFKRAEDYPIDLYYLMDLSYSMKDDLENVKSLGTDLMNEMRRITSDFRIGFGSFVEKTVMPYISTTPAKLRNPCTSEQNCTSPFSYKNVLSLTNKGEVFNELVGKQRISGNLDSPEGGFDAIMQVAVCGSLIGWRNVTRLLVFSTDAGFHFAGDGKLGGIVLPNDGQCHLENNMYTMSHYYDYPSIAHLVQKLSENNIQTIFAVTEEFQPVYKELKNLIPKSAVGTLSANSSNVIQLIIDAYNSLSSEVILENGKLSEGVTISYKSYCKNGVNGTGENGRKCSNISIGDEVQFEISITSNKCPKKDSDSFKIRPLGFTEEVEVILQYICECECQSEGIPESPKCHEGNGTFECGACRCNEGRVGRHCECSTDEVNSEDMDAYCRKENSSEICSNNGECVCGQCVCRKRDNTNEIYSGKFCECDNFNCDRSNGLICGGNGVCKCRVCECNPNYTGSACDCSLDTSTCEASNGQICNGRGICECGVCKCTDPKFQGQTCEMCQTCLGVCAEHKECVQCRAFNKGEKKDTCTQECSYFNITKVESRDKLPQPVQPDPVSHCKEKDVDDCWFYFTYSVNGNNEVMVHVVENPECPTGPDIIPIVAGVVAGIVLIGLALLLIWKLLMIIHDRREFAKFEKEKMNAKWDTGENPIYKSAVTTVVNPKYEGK

[5] = target: T2, Platelet glycoprotein IIb/IIIa (human, UniProt P08514 32-1039; P05106 27-788)
Fibronectin receptor [6] = target: T1, Fibronectin receptor; remark: listed apart in the source
Fibronectin receptor [7] = target: T1, Fibronectin receptor; remark: listed apart in the source
αvβ5 [8] = target: αvβ5; remark: listed apart in the source
αvβ5 [9] = target: αvβ5; remark: listed apart in the source
[10] = target: T2, Platelet glycoprotein IIb/IIIa; remark: listed apart in the source
[11] = target: T2, Platelet glycoprotein IIb/IIIa; remark: listed apart in the source

B1: Ac-CNPRGD(Y-OMe)EC-NH2 (peptide)
peptide: Ac-CNPRGD[Tyr(OMe)″]EC-NH2
modifications: disulfide 1-9
IC50 (αvβ5 [1]): 9470 nM

B2: R(Pmc)GHRGDLRCR (peptide)
peptide: R[Cys(β,β-pentamethylene)]GHRGDLRCR
modifications: disulfide 2-10 (inferred); also: D,L-Pmc mixture at 2
IC50 (αvβ5 [2]): 1580 nM
IC50 (αvβ5 [3]): 1580 nM

B3: Ac-CNPRGD(Y-OMe)(Cit)C-NH2 (peptide)
peptide: CNPRGDXXC
modifications: N-terminal acetyl; O-Me-Tyr at 7; Cit at 8; C-terminal amide
IC50 (αvβ5 [1]): 3460 nM

B4: Ac-CNPRGD(Y-OMe)KC-NH2 (peptide)
peptide: Ac-CNPRGD[Tyr(OMe)″]KC-NH2
modifications: disulfide 1-9
IC50 (αvβ5 [1]): 5820 nM

B5: R(Pmc)GHRGD(p-I-F)RCR (peptide)
peptide: R[Cys(β,β-pentamethylene)]GHRGD[Phe(4-I)]RCR
modifications: disulfide 2-10; also: Pmc2 from Boc-D/L-Pmc
IC50 (Fibronectin receptor [4]): 4190 nM
IC50 [5]: 10 nM
IC50 (αvβ5 [3]): 4030 nM

B6: G(D-Pen)GHRGDLRCA (peptide)
peptide: G[dPen]GHRGDLRCA
modifications: disulfide 2-10
IC50 (αvβ5 [2]): 5270 nM

B7: R(Pmc)GHRGD(O-Me-Tyr)RCR (peptide)
peptide: R[Cys(β,β-pentamethylene)]GHRGD[Tyr(Me)]RCR
modifications: disulfide 2-10; also: Pmc2 made from D,L-Pmc, configuration not given here
IC50 (Fibronectin receptor [4]): 980 nM
IC50 (Fibronectin receptor [6]): 980 nM
IC50 (Fibronectin receptor [7]): 980 nM

B8: R(Pmc)GHRGD(Y-OMe)RCR (peptide)
peptide: R[Cys(β,β-pentamethylene)]GHRGD[Tyr(Me)]RCR
modifications: disulfide 2-10; also: Pmc2 made from D,L-Pmc, configuration not given here
IC50 (αvβ5 [3]): 1050 nM
IC50 (αvβ5 [8]): 1050 nM
IC50 (αvβ5 [9]): 1050 nM

B9: (Pmp)GHRGDLRCA (peptide)
peptide: [Cyclohexylacetyl(1-SH)]GHRGDLRCA
modifications: disulfide 1-9 (inferred)
IC50 [10]: 20 nM

B10: R(Pmc)GHRGDFRCR (peptide)
peptide: R[Cys(β,β-pentamethylene)]GHRGDFRCR
modifications: disulfide 2-10
IC50 [5]: 40 nM

B11: R(D-Pen)GHRGDLRCR (peptide)
peptide: R[dPen]GHRGDLRCR
modifications: disulfide 2-10
IC50 (αvβ5 [2]): 10000 nM

B12: R(Tmc)GHRGDLRCR (peptide)
peptide: R[Tmc]GHRGDLRCR
modifications: disulfide (positions not given here); reading uncertain; also: Tmc2 as D,L mixture of diastereomers, printed as R(Tmc)GHRGDLRCR
IC50 [10]: 30 nM

B13: G(Pen)GHRGDLRCA (peptide)
peptide: G[Pen]GHRGDLRCA
modifications: disulfide 2-10
IC50 (αvβ5 [2]): 8260 nM

B14: R(Pen)GHRGDLRCR (peptide)
peptide: R[Pen]GHRGDLRCR
modifications: disulfide 2-10
IC50 (αvβ5 [2]): 4930 nM
IC50 [10]: 40 nM

B15: R(Pmc)GHRGD(O-n-butyl-Tyr)RCR (peptide)
peptide: R[Cys(β,β-pentamethylene)]GHRGD[Tyr(nBu)]RCR
modifications: disulfide 2-10; also: Pmc from Boc-D/L-Pmc, isomer not given here
IC50 [5]: 30 nM

B16: Ac-CNPRGD(Y-OMe)OC-NH2 (peptide)
peptide: Ac-CNPRGD[Y‑OMe][code O]C-NH2
modifications: disulfide 1-9 (inferred); reading uncertain
IC50 [11]: 50 nM
IC50 (αvβ5 [1]): 7700 nM

B17: R(Pmc)GHRGD(Hpa)RCR (peptide)
peptide: R[Cys(β,β-pentamethylene)]GHRGD[hPhe]RCR
modifications: disulfide 2-10; also: Pmc2 from Boc-D/L-Pmc, configuration not given here
IC50 (αvβ5 [3]): 4250 nM
